Source: patent US20250382354A1

How the values were obtained:
MERS S ectodomain (MERS) = experiment: ELISA on coated S
[1] = molecular target: C-terminally truncated SARS-CoV-2 S protein (pSARS-CoV2-Strunc), ancestral (SARS-CoV-2) (UniProt P0DTC2); experiment: cell-based or functional assay
[2] = molecular target: CRCoV-240/05 HR2 peptide (CRCoV-240/05); experiment: peptide ELISA
HKU4 HR2 peptide (HKU4) = HKU4 HR2 peptide (HKU4) (UniProt A3EX94); experiment: peptide ELISA
MHV HR2 peptide (MHV) = experiment: peptide ELISA
HKU5 HR2 peptide (HKU5) = HKU5 HR2 peptide (HKU5) (UniProt A3EXD0); experiment: peptide ELISA
[3] = molecular target: HKU24 HR2 peptide (HKU24); experiment: peptide ELISA
[4] = molecular target: SARS-CoV-2 HR2 peptide (SARS-CoV-2) (UniProt P0DTC2); experiment: peptide ELISA

S2P6 (antibody) was tested, and the EC50 (MERS S ectodomain (MERS)) was 0.066 µg/mL, the Ancestral Pseudovirus IC50 (on cells with [not given]) [1] was 23.2 µg/mL and the EC50 [2] was 0.0189 µg/mL. The EC50 (HKU4 HR2 peptide (HKU4)) was 0.00975 µg/mL, the EC50 (MHV HR2 peptide (MHV)) was 0.0215 µg/mL and the EC50 (HKU5 HR2 peptide (HKU5)) was 0.0345 µg/mL. For the same substance, the EC50 [3] was 0.0101 µg/mL and the EC50 [4] was 0.0166 µg/mL.
